Test results: patent US20180371451A1 (BOARD OF TRUSTEES OF THE UNIVERSITY OF ILLINOIS, published 2018)

Tests used:
Experiment in all cases: specificity test of the expressed monobodies (method not named)
[1] = molecular target: human Cyclin-Dependent Kinase 2 (human, UniProt P24941 1-298)
[2] = molecular target: T1, CDC34 (UniProt P49427 1-236, limits assumed)
T1 sequence (looked up): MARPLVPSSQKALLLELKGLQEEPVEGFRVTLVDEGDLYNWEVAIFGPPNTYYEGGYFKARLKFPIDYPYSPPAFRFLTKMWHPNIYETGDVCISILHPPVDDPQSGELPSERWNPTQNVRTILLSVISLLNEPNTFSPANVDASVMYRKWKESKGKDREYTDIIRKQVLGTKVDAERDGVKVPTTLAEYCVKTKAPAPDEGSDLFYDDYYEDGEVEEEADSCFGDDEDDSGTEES

[3] = molecular target: BSA (UniProt P02769 25-607)
BSA, sequence (P02769 25-607 limits assumed): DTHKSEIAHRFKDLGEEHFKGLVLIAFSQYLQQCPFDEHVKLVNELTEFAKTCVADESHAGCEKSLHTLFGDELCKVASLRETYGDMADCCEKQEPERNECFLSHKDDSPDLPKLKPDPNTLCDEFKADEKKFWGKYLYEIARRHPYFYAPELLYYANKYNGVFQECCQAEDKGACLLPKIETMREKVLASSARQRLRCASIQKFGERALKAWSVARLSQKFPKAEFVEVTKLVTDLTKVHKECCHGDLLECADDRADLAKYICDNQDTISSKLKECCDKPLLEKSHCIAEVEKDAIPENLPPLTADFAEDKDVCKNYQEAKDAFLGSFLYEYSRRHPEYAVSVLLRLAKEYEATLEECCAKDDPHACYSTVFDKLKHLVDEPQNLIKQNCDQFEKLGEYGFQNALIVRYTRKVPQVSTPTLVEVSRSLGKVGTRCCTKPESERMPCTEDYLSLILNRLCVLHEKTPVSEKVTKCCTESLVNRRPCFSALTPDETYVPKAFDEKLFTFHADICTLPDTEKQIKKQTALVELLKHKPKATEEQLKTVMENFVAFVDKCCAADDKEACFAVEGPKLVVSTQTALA

Measured: binding result

B1: anti-MAP2K5 FN3 monobody clone G4 (designed binder)
chain: MAVSDVPRKLEVVAATPTSLLISWDQDQVYYYRIRYGETGGNSPVQEFTVPGSKSTATISGLKPGVDYTITVYAVTGTSYAYIISINYRI
notes: FN3 (tenth type III domain of fibronectin) monobody from the PExSR selection; It was cloned into the pET14b-SUMO E. coli expression vector (SUMO fusion, purified on His60 resin) for characterisation; also called anti-MAP2K5 clone G4
no binding: [1] | [2] | [3]

B2: anti-MAP2K5 FN3 monobody clone H1 (designed binder)
chain: MAVSDVPRKLEVVAATPTSLLISWDPYWFSGLYYRITYGETGGNSPVQEFTVPGSKSTATISGLKPGVDYTITVYAVTYYSWGYLVGEIISINYRI
notes: FN3 monobody from the PExSR selection; For the specificity test it was expressed as a SUMO fusion from pET14b-SUMO; also called Anti-MAP2K5 H1
no binding: [1] | [2] | [3]
